Columns and labels:
[1] = target: T1, Mu-FXII I438A mutant with C-terminal 8xHis-tag (mouse, UniProt Q80YC5 20-597); experiment: Western blot, non-reducing, 3F7 mAb detected with anti-human IgG-FITC
T1 construct: Culture supernatant; also called mutant f) I438A
T1 sequence: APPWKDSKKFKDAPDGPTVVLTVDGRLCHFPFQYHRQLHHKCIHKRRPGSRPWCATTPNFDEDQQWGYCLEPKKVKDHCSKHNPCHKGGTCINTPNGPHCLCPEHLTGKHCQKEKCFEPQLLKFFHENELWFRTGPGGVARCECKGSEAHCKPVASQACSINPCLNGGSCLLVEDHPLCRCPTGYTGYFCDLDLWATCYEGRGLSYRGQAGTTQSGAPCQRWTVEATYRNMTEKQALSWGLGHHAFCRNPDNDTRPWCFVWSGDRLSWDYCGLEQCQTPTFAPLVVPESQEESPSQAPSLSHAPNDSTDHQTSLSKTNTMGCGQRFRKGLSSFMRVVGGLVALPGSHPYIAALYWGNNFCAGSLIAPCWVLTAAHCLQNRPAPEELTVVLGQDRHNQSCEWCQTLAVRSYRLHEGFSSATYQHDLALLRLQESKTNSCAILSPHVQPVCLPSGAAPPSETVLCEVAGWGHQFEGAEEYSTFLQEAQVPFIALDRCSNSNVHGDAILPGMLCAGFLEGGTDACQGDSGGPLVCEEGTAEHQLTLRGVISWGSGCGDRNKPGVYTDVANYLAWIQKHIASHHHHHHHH
Description: Proteins were then transferred electrophoretically onto nitrocellulose filters and blocked for 1 hour in 5% Milk powder in Tris-buffered saline with 0.05% Tween-20 (TTBS). Filters were then incubated for 1 hour with either 3F7 mAb or an anti-His mAb 3H3 (both at […] in TTBS with 5% Milk powder), washed thoroughly with TTBS, then incubated for a further hour with anti-human IgG-FITC or anti-mouse IgG-FITC, respectively (Millipore, USA; both at 0.25 mg/ml in TTBS with 5% Milk powder). Following further washing of membranes in TTBS, Ab-FITC bound proteins were visualized using a Typhoon variable mode analyzer (GE Healthcare, USA).

[2] = target: T2, human Factor XIIa-beta (human, UniProt P00748 354-615, limits assumed); experiment: SPR (Biacore), KD against parental 3F7
T2 construct: Bought from Enzyme Research Laboratories; also called FXIIa beta; FXIIa-beta
T2 sequence: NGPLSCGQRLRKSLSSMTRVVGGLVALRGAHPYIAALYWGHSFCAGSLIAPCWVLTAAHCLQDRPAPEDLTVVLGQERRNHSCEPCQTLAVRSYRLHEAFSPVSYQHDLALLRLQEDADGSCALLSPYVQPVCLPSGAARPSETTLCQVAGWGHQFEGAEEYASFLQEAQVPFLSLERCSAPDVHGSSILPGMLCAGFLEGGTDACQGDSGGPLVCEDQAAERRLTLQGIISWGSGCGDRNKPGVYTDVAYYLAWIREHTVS

- binding result [1]: no binding
- Fold affinity improvement [2]: 1 fold
B1: monoclonal antibody 3F7 (fully human IgG4/lambda) (antibody, V domains shown)
VH: EVQLLESGGGLVQPGGSLRLSCAASGFTFSKYIMQWVRQAPGKGLEWVSGIRPSGGTTVYADSVKGRFTISRDNSKNTLYLQMNSLRAEDTAVYYCARALPRSGYLISPHYYYYALDVWGQGTTVTVSS
VL: QSELTQPPSASGTPGQRVTISCSGSSSNIGRNYVYWYQQVPGTAPKLLIYSNNQRPSGVPDRFSGSKSGTSASLVISGLRSEDEADYYCAAWDASLRGVFGGGTKLTVLG
notes: also called 3F7 mAb; MAb 3F7
